From US20220348635A1, “COMPOSITIONS AND METHODS FOR NEUROLOGICAL DISEASES” (Coda Biotherapeutics, Inc., priority 2019, published 2022)

How the values were obtained:
Format in all cases: cell-based
[1] = High throughput electrophysiology in HEK293T cells, acetylcholine
Description: To confirm the EC50s determined by plate reader as well as develop a better understanding of maximum current flow, the engineered receptors were subjected to high throughput electrophysiology system, as described below. For HEK293T studies, cDNAs encoding ion channels were cloned into pcDNA3.1 using standard recombination techniques. HEK293T cells from Clontech (Lenti-X™ 293T Cell Line) were cultured in DMEM supplemented with 10% FBS and 1% Pen/Strep to 40-50% confluence using standard cell culture protocols, transfected with ion channel plasmids at a concentration of 18 μg per 15 cm dish using Fugene 6, and grown for an additional 24 hours. Cells were then assayed on a electrophysiological system (IonFluxHT and/or Mercury, Fluxion Biosciences) in which dose-response relationships may be assessed through a microfluidics-based platform for establishing whole cell configurations. […] Data were then analyzed off-line using custom Python scripts to convert data to .csv format, re-plot traces, and apply QC measurements to reject unstable recordings (i.e. thresholding based on access resistance and/or standard deviation in baseline, as well as artifact rejection). Peak currents were then calculated and population data were fit using a 4-parameter logistic equation as described by the Hill Equation. […]

[2] = Manual patch clamp, HEK cell line, Facinicline/RG3487; conditions: HEK293 cells and cultured rat DRG sensory neurons
Description: FIG. 2A-FIG. 2B show the concentration-response curves of CR-11 (Chemogenic receptor-11, an engineered receptor comprising an amino acid sequence having the amino acid substitutions of Y115D and L131Q in SEQ ID NO: 33) expressed in HEK 293 cells to acetylcholine as well as to non-native ligands RG-3487 (SA-2, Synthetic Agonist-2). The responses were evaluated using manual patch clamp electrophysiology. Currents were normalized to unity for the maximal response. The continuous line through the data points is the best fit obtained with the Hill equation, and EC50s for each ligand are estimated from the concentration-response curves.
Using whole cell manual patch clamp electrophysiology in HEK293 cells and rat DRG neurons, the EC50 of the various engineered receptors disclosed herein to Ach and non-native ligands was measured. The rheobase shift was also measured in rat DRG neurons, which reflects the efficacy of the receptors. To calculate the rheobase, first, the amount of current that can produce an action potential was determined. Then the ligand was added, followed by a step wise increase in the current injected up to 700 pA. […] The EC50 was calculated using the Hill equation with peak current measurements from escalating doses of ligand.

[3] = Manual patch clamp, rat DRG neurons, Facinicline/RG3487; conditions: cultured adult rat DRG neurons expressing the receptor; not observed in non-transduced cells
Description: Using whole cell manual patch clamp electrophysiology in HEK293 cells and rat DRG neurons, the EC50 of the various engineered receptors disclosed herein to Ach and non-native ligands was measured. The rheobase shift was also measured in rat DRG neurons, which reflects the efficacy of the receptors. To calculate the rheobase, first, the amount of current that can produce an action potential was determined. Then the ligand was added, followed by a step wise increase in the current injected up to 700 pA. The current injected after addition of the ligand was divided by, the original current injected to obtain an action potential, to calculate the rheobase. The EC50 was calculated using the Hill equation with peak current measurements from escalating doses of ligand.

B1: Y115D, L131Q in SEQ ID NO: 33: CR-11 (Chemogenic receptor-11): SEQ ID NO: 33 with substitutions Y115D and L131Q (protein)
chain: MRCSPGGVWLALAASLLHVSLQGEFQRKLYKELVKNYNPLERPVANDSQPLTVYFSLSLLQIMDVDEKNQVLTTNIWLQMSWTDHYLQWNVSEYPGVKTVRFPDGQIWKPDILLDNSADERFDATFHTNVQVNSSGHCQYLPPGIFKSSCPMDLKNFPMDVQTCKLKFGSWSYGGWSLDLQMQEADISGYIPNGEWDLVGIPGKRSERFYECCKEPYPDVTFTVTMRRRMGYYLIQMYIPSLLIVILSWISFWINMDAAPARVGLGITTVLTMTTQSSGSRASLPKVSYVKAIDIWMAVCLLFVFSALLEYAAVNFVSRQHKELLRFRRKRRHHKSPMLNLFQEDEAGEGRFNFSAYGMGPACLQAKDGISVKGANNSNTTNPPPAPSKSPEEMRKLFIQRAKKIDKISRIGFPMAFLIFNMFYWIIYKIVRREDVHNQ
modifications: synthetic sequence of chimeric LGIC
With B1 as the molecule, how does the “fold reduced potency to acetylcholine compared to wild type receptor” value [1] read?
The value was “over 500 fold”.

What about the “sensitivity to RG-3487 compared to wildtype nAchRa7 receptor” value [2] of the same molecule?
The value was “more sensitive”.

What about the “chloride current on application of RG-3487 (SA-2)” value [3] of the same molecule?
The value was “generated chloride current in a dose dependent manner”.
